Assay results published in publication PMC8031663, “Caveolin‐1‐driven membrane remodelling regulates hnRNPK‐mediated exosomal microRNA sorting in cancer”.

Biological target: hnRNPK (6xHis-GFP fusion) (Homo sapiens, UniProt P61978 1-463)
Experiment: MST; Kd plotted in Fig 4B, value not in text; MST: 50 mM HEPES, 0.3 M KCl, pH 7.4, 40 nM RNA, protein dilution from 150 uM, temperature not stated; pull-down: 10 mM Tris-Cl pH 7.5, 20 mM KCl, 1.5 mM MgCl2
Details: protein: recombinant; tags: N-terminal 6xHis-GFP, TEV site; label: 5' 6-FAM; single strand

Does UCAGUGCACUACAGAACUUUGU (ssRNA) [motif_mimic (miR-148a-3p)] bind?
Result: binds
